{"source": "patent US8889709B2", "about": "“Use of isoQC inhibitors in the treatment and prevention of inflammatory diseases or conditions” (Probiodrug AG, priority 2006, dated 2014)", "proteins": {"B1": {"name": "mouse-isoQC (Mus musculus; I74N) (protein)", "chain": "EEMSRSRDLRVPLNGSLSEAKLRLVVGQLDPQRLWGTFLRPLLIVRPPGSSGNLQVRKFLEATLQSLSAGWHVELDPFTASTPLGPLDFGNVVATLDPGAARHLTLACHYDSKFFPPGLPPFVGATDSAVPCALLLELVQALDAMLSRIKQQAAPVTLQLLFLDGEEALKEWGPKDSLYGSRHLAQIMESIPHSPGPTRIQAIELFVLLDLLGASSPIFFSHFPRTARWFQRLRSIEKRLHRLNLLQSHPQEVMYFQPGEPPGPVEDDHIPFLRRGVPVLHLIATPFPAVWHTPADTEANLHPPTVHNLSRILAVFLAEYLGL", "notes": "starting with codon 43 (Glu 43) of the open reading frame (counting from methionine II); yeast alpha-factor secretion signal (N); made in house; host or cells: Pichia pastoris X-33"}}, "test_in_all_cases": "Kinetic parameters of conversion of peptide substrates by murine isoQC", "assay_type_in_all_cases": "biochemical, mouse", "conditions_in_all_cases": "pH 8.0; 30.0 °C", "key": {"[1]": {"substrate": "NC(=O)CC[C@H](N)C(=O)N[C@@H](CCC(=O)O)C(=O)O"}, "[2]": {"substrate": "C[C@H](NC(=O)[C@H](Cc1ccc(O)cc1)NC(=O)[C@@H](N)CCC(N)=O)C(=O)O"}, "[3]": {"substrate": "NC(=O)CC[C@H](N)C(=O)NCC(=O)N1CCC[C@H]1C(=O)O"}}, "data": [{"protein": "B1", "values": [{"measurement": "Km", "setting": "[1]", "value": "470 ± 40", "unit": "µM"}, {"measurement": "kcat", "setting": "[1]", "value": "7.79 ± 0.44", "unit": "s⁻¹"}, {"measurement": "kcat/Km", "setting": "[1]", "value": "16880 ± 2320", "unit": "M⁻¹ s⁻¹"}, {"measurement": "Km", "setting": "[2]", "value": "58 ± 4", "unit": "µM"}, {"measurement": "kcat", "setting": "[2]", "value": "22.9 ± 0.86", "unit": "s⁻¹"}, {"measurement": "kcat/Km", "setting": "[2]", "value": "394230 ± 21360", "unit": "M⁻¹ s⁻¹"}, {"measurement": "Km", "setting": "[3]", "value": "102 ± 6", "unit": "µM"}, {"measurement": "kcat", "setting": "[3]", "value": "11.4 ± 0.4", "unit": "s⁻¹"}, {"measurement": "kcat/Km", "setting": "[3]", "value": "111440 ± 6810", "unit": "M⁻¹ s⁻¹"}]}]}
